Assay [1] deals with T1, N-terminal FLAG-tagged cynomolgus monkey ROBO4, cynoROBO4-1 (pCI-FLAG-cynoROBO4-1) (cynomolgus monkey, UniProt Q8WZ75 28-1007 (human entry)).
T1 chain: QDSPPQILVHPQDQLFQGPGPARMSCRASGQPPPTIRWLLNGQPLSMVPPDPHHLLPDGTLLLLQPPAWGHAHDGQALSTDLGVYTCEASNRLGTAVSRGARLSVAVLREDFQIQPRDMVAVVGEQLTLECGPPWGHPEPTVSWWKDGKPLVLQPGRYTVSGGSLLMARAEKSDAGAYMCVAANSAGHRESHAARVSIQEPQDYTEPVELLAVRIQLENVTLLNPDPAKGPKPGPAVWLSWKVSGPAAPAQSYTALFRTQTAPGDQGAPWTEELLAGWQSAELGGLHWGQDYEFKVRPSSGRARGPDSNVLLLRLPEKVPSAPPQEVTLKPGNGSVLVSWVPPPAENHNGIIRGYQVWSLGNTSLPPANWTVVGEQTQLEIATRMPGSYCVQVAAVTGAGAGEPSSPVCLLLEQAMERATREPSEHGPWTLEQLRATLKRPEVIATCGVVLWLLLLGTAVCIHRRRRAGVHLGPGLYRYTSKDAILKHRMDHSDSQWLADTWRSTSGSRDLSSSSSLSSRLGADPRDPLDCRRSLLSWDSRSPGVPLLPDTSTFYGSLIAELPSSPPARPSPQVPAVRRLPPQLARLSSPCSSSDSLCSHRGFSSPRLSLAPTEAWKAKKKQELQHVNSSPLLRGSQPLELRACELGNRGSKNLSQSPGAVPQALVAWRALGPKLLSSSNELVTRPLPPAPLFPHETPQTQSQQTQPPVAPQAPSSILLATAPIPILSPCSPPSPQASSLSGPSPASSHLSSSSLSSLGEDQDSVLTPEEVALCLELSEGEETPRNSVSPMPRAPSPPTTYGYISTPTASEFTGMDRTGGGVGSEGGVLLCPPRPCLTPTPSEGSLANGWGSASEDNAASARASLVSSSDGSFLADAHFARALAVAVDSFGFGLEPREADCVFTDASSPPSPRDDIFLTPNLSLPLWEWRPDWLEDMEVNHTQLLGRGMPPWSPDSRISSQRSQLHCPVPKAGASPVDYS
The assay can be described thus: flow cytometry (FC500), HEK293 cells transfected with pCI-FLAG-cynoROBO4-1, antibody at 10 µg/mL, FITC goat anti-human IgG Fc; control histogram IgG (human IgG). A general note: In flow cytometry, cells or beads pass a laser one at a time.

In assay [2] the target is T2, N-terminal FLAG-tagged human ROBO4 extracellular region/domain deletion variant hROBO4-225 (human, UniProt Q8WZ75 225-1007).
T2 construct: On transfected HEK293 cells
T2 sequence: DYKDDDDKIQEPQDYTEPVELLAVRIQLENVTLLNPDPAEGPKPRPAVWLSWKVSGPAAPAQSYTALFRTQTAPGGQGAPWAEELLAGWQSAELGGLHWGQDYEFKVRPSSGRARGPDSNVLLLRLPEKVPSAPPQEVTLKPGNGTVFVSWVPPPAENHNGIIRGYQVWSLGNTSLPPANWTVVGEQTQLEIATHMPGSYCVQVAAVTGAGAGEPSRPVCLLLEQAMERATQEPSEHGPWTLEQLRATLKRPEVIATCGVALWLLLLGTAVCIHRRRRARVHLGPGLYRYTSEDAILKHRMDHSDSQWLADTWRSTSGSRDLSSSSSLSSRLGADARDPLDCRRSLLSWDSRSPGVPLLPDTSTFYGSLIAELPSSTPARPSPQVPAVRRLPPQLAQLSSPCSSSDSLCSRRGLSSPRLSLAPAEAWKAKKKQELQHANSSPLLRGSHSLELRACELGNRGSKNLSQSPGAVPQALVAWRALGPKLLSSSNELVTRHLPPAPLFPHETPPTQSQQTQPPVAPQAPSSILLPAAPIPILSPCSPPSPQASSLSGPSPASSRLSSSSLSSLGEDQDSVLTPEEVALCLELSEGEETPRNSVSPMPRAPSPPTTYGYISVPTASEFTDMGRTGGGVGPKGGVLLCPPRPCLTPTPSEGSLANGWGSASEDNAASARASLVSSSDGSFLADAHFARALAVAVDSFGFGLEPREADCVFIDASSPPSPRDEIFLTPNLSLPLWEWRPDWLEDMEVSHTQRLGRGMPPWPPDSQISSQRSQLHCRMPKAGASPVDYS
The experiment in a line: flow cytometry, HEK293 cells transfected with pCI-FLAG-hROBO4-225, anti-mouse IgG FITC; control histogram IgG (Mouse IgG2a). As to the method: Each cell suspension prepared in 4)-5-1 was centrifuged, and the supernatant was removed. Then, MAb1, a positive control Monoclonal ANTI-FLAG M2 antibody produced in mouse, or a negative control Mouse IgG2a was added at a concentration of 10 μg/mL to 2×10⁵ expression vector-transfected cells, and the resulting suspension was left standing at 4° C. for 1 hour. The cells were washed once with PBS containing 5% FBS. Then, Anti-Mouse IgG FITC conjugate diluted 1000-fold with PBS containing 5% FBS was added thereto, and the resulting suspension was left standing at 4° C. for 1 hour. The cells were washed with three times with PBS containing 5% FBS, then resuspended in PBS containing 5% FBS, and subjected to detection using a flow cytometer (BD FACSCalibur; BD Biosciences). Data was analyzed using Flowjo. The histogram of FITC fluorescence intensity was prepared. The antibody was determined to bind to a cell when the histogram of MAb1 was shifted to a stronger fluorescence intensity region compared with the histogram of the negative control Mouse IgG2a. […] In this context, each intracellular region/domain deletion variant was confirmed to be expressed on the cell membrane using the positive control anti-FLAG antibody (FIG. 9).

Two molecules from patent US20150098945A1 (Daiichi Sankyo, published 2015) can be followed below.

B1: humanized MAb1 antibody H-1143 (antibody, human IgG2, kappa, V domains shown)
VH: EVQLVESGGGLVQPGGSLRLSCAASGFTFSTYAMSWVRQAPGKGLEWVATISQGGTYTYYPDSVKGRFTISRDNAKNTLYLQMNSLRAEDTAVYYCARLIYYDYLDYWGQGTLVTVSS
VL: DIVMTQSPLSLPVTLGEPASISCRSSQSLENENKNLYLNWYLQKPGQSPQLLIYRVSNRFSGVPDRFSGSGSGTDFTLKISRVEAEDVGVYYCLQVTHVPWTFGPGTKVDIKR
notes: Human IgG2 / kappa constant regions; also called hMAb1-H2-type heavy chain + hMAb1-L2-type light chain
On to B1, for which the binding result in assay [1] is recorded as “binds”.

B2: anti-ROBO4 mouse monoclonal antibody MAb1 (antibody, mouse IgG1, V domains shown)
VH: EVQLVESGGGLVKPGGSLKLSCAASGFTFSTYAMSWVRQTPEKRLEWVATISNGGTYTYYPDSVKGRFTISRDNAENTLYLQMSSLRSEDTAMYFCARLIYYDYLDYWGHGTTLTVSS
VL: DAVMTQTPLSLPVSLGDQASISCRSSQSLENSNGNTYLNWYFQKPGQSPQLLIYRVSNRFSGVLDRFSGSGSGTDFTLKISRVEAEDFGVYFCLQVTHVPWTFGGGTKLEIKR
notes: Mouse IgG1 (gamma1), kappa light chain, purified from hybridoma supernatant; also called parent antibody MAb1
With B2, the binding result in assay [2] is given as “no binding (tested: 10 µg/mL)”.
